# Source: patent publication US11098109B2, “Single-chain variable fragment anti-CD133 antibodies and uses thereof” (REGENTS OF THE UNIVERSITY OF MINNESOTA, priority 2010, dated 2021)
# T1: human prominin-1 (Homo sapiens, UniProt O43490, DEL381-611)
# T1 construct: His-tag (6xHis) (N); made in house
# T1 sequence (O43490 with tags, fused parts or gaps DEL381-611): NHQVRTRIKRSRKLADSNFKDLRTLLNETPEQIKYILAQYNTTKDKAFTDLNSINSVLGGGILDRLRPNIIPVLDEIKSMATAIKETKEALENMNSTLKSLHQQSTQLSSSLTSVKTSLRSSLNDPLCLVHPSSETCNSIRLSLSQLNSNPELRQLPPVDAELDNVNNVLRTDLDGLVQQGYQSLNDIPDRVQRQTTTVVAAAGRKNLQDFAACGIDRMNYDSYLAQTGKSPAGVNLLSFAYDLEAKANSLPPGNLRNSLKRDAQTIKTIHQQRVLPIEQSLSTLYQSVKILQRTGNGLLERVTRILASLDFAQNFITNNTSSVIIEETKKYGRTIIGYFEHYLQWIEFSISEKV
# T2: CD133 (Homo sapiens, UniProt O43490)
# T2 construct: endogenous in cells
# T2 sequence (O43490 20-865): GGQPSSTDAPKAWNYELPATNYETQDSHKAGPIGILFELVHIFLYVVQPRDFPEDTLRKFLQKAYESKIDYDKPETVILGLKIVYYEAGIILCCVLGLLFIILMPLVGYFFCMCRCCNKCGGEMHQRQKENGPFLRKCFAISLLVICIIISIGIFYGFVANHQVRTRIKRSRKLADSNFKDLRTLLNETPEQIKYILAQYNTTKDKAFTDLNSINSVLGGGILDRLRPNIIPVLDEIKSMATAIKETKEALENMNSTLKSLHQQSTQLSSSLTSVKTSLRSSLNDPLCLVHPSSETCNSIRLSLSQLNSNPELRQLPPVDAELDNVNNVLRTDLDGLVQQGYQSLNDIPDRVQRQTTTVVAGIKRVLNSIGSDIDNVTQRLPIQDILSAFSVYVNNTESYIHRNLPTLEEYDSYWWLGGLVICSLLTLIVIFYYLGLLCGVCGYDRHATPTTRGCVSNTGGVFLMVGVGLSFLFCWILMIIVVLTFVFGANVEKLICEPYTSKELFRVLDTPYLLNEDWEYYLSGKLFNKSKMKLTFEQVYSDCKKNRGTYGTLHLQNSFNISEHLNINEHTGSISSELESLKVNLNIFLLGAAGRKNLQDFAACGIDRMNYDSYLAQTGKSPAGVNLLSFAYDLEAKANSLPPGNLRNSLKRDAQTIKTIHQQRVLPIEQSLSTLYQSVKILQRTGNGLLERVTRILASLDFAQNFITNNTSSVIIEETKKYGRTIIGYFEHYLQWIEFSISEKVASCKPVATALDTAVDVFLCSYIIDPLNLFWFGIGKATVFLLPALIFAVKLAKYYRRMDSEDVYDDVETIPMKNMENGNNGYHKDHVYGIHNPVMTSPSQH
# B1: No. 11 scFv: soluble scFv of the Hybridoma Clone 7 antibody expressed in E. coli Top10F', SEQ ID NO:58; also used FITC-labeled (protein)
# scFv: MDIVLSQSPAIMSASPGEKVTISCSASSSVSYMYWYQQKPGSSPKPWIYRTSNLASGVPARFSGSGSGTSYSLTISSMEAEDAATYYCQQYHSYPPTFGAGTKLELKSSGGGGSGGGGGGSSRSSLEVKLVESGPELKKPGETVKISCKASGYTFTDYSMHWVNQAPGKGLKWMGWINTETGEPSYADDFKGRFAFSLETSASTAYLQINNLKNEDTATYFCATDYGDYFDYWGQGTTLTVSS
# modifications: optionally FITC-labeled; scFv polypeptide
# B2: Hybridoma Clone 7: monoclonal antibody produced by Hybridoma Clone 7 that specifically binds to human CD133 (antibody, V domains shown)
# VL: DIVLSQSPAIMSASPGEKVTISCSASSSVSYMYWYQQKPGSSPKPWIYRTSNLASGVPARFSGSGSGTSYSLTISSMEAEDAATYYCQQYHSYPPTFGAGTKLELK
# VH: LEVKLVESGPELKKPGETVKISCKASGYTFTDYSMHWVNQAPGKGLKWMGWINTETGEPSYADDFKGRFAFSLETSASTAYLQINNLKNEDTATYFCATDYGDYFDYWGQGTTLTVSS
# Columns and labels:
# human prominin-1 = target: T1, human prominin-1; experiment: Soluble scFv ELISA; format: binding; settings: for binding specificity in soluble scFv ELISA: scFv from culture medium and periplasmic space
# Method: A single colony was picked from No. 11 DNA transformed Top10F′ E. coli LB-Amp plate in and used to inoculate 25 mL LB medium with 100 μg/mL Amp. The culture was shaken at 37° C. at 250 rpm overnight.
# The 25 mL overnight culture was diluted to 500 mL LB containing Amp and was shaken at 37° C. at 250 rpm for about two hours until the OD600 reached 0.5 to 0.7. IPTG was added to a final concentration of 1 mM. The culture was shaken at 30° C. overnight.
# The culture was centrifuged at 5.000 g for 20 minutes at 4° C. The supernatant was kept for ELISA.
# The cell pellet was completely suspended with 50 mL ice-cold PBS containing protease inhibitors (1 mM PMSF), and was sonicated on ice in short bursts. The power setting was 7 min, 40% power cycle 5 (HD2200 W/MS 73). Triton X-100 was added to the cell lysate to a final concentration of 1% and was mixed gently for 30 minutes at room temperature to aid in solubilization of the fusion protein.
# The mixture was centrifuged at 15,000 rpm (Heraeus #3334 rotor) for 30 minutes at 4° C., and the supernatant was taken for ELISA.
# The 2 supernatants were diluted (one is from overnight culture supernatant, and the other is from overnight culture pellet) containing soluble mouse scFv with equal volume of 5% milk and were incubated for 10 minutes at room temperature.
# 100 μL of the diluted scFv was added to each well (coated with human prominin-1), and incubated for one hour at 37° C.
# The plate was washed five times.
# 50 μL per well of diluted secondary antibody conjugate at 1:2.000 (HOURP-conjugated anti-HA, diluted in 5% milk) was added, and incubated for one hour at 37° C.
# 50 μL/well TMB substrate was added for detection, and incubated for 30 minutes at room temperature.
# Soluble scFv ELISA was performed to confirm the binding specificity to the target protein. Here, the expressed scFv was captured by human prominin-1 pre-coated plate, and the binding of the soluble scFv fused with HA tag was detected with anti-HA Ab-HOURP conjugate. […] Supernatant and pellet are test samples. PC means positive control, hybridoma secreted antibody (diluted at 1:2000) was used. BLK means blank.
# CD133 = target: T2, CD133; experiment: Western blot screening of hybridoma supernatants on Caco-2 lysates; format: binding; settings: CD133^+ Caco-2 cell lysates
# Method: FIG. 2: Analysis of the newly generated CD133 hybridoma. Supematants of hybridoma clones were tested as a primary antibody in western blot (A) and Immunofluorescence (B) assays. Pre-immunized serum (-ve) or post immune anti sera (a.s.) served as controls. For western blot, Caco-2 lysates normalized for protein concentration were loaded onto a SDS-PAGE gel, resolved, blotted onto a nitrocellulose membrane and cut into strips. Each strip was probed with supernatant from the identified hybridoma. Membrane in Lane 1 was probed with a commercially available antibody (ab 19898, Abcam) and served as an additional positive control. For immunofluorescence, Caco-2 cells were fixed and immunostained with the hybridoma supernatants. A commercially available antibody (293C3, Militenyi) was used as additional positive control. Scale bars in the panel represent 200 micrometers. Supernatant of Hybridoma Clone 7 was used in the immunohistochemical analysis of primary glioblastoma and kidney tissue (C).
# Caco-2 cells were lysed in RIPA buffer (Thermo Scientific, Waltham. Mass.) and centrifuged at 10,000 rpm and 4° C. to remove debris. The protein concentration of cell lysates was measured using BCA protein assay kit (Thermo Scientific, Waltham, Mass.), with bovine serum albumin as the standard. […]
Molecule,"A450, Supernatant (human prominin-1; culture supernatant of Top10F' E. coli)","A450, Pellet (human prominin-1; lysate of culture pellet (periplasmic space))",binding specificity in soluble scFv ELISA (human prominin-1),binding specificity in soluble scFv ELISA (human prominin-1; listed as Recombinant Clone 11 scFv),"A450, Positive Control (human prominin-1; hybridoma secreted antibody diluted at 1:2000)",Western blot band with hybridoma supernatant (CD133)
B1,0.9,1.4,confirmed specific for human prominin-1 protein,specific for human CD133,–,–
B2,–,–,–,–,1.9,distinct band corresponding to the predicted molecular weight of CD133
